Assay [1] deals with T1, hEDAR-Fas on Fas-deficient Jurkat cells (human, UniProt P25445 169-335, limits assumed).
T1 sequence: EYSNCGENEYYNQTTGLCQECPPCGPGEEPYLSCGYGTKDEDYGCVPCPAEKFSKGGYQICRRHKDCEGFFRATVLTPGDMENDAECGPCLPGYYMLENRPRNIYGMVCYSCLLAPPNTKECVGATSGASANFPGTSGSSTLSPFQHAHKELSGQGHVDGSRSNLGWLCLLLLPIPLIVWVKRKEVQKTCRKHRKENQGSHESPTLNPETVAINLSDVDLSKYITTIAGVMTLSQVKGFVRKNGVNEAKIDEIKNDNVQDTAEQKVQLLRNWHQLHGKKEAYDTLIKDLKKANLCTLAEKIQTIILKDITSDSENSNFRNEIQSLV
Put plainly: cell-based or functional assay.

In assay [2] the target is T2, mEDAR-Fas on Fas-deficient Jurkat cells (mouse; human, UniProt P25445 169-335, limits assumed).
T2 sequence: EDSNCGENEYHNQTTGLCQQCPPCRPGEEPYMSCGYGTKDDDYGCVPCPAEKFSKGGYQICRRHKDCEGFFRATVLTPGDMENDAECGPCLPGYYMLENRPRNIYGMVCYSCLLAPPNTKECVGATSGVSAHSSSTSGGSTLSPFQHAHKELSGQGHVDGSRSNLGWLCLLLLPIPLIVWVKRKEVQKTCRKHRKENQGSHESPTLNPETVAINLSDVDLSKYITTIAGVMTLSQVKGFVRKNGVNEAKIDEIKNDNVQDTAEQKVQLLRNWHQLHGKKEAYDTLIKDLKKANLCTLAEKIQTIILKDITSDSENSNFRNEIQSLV
Description: cell-based or functional assay.

Assay [3] concerns the target EDAR-Fas fusion protein on Fas-deficient Jurkat cells (human or mouse EDAR not told apart) (human, UniProt P25445 169-335). Description: cell-based or functional assay.
For assay [4], the target named is T3, human Fas-Fc (human, UniProt P25445 26-170, limits assumed).
T3 construct: Negative control protein; also called hFas-Fc; not shown: Fc portion
T3 sequence (looked up): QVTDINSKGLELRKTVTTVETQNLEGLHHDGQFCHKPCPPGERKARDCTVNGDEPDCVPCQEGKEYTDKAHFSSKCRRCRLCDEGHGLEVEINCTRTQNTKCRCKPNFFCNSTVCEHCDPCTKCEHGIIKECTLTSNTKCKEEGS
Description: Western blot, 20 ng hFas-Fc (FIG. 7B). An excerpt:
(§1) The weaker signal obtained with mouse EDAR might be explained by the lower amount of mouse EDAR-Fc loaded on the gel. Binding specificity is established by showing that none of the mAbEDARs does bind to Fas-Fc and Flag-human APRIL (while Flag-human APRIL is recognized by an anti-APRIL mAb). […] The band recognized by mAbEDAR5 in the BSA lane is probably due to a cross-contamination of EDAR-Fc in the neighboring lane.
A general note: A western blot detects proteins with antibodies after separation by electrophoresis.

In a further assay the target is T4, human EDAR-Fc (human).
T4 construct: also called hEDAR-Fc; human EDAR (1-183)-Fc
Put plainly: Western blot, non-reducing, 20 ng human EDAR-Fc (FIG. 7B).
Source text: as §1

Assay [5] has as its target T5, human EDAR domains I and II fused to Fc of human IgG1 (human, UniProt Q9UNE0 27-114).
T5 construct: Tested as supernatant of transfected 293T cells; also called CRD1 and CRD2 EDAR-Fc truncation protein; fragment made up of domains I and II; not shown: Fc region of human IgG1
T5 sequence: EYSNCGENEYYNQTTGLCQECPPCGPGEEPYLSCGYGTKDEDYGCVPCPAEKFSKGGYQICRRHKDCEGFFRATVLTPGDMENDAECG
Put plainly: capture ELISA on EDAR-Fc truncation proteins. An excerpt: (§2) Epitope mapping of anti-EDAR monoclonal antibodies on recombinant human EDAR by ELISA. (A) Schematic linear representation of human EDAR showing the position of cystein residues (thin horizontal lines), of the putative N-linked glycosylation site (thick horizontal line, N), of the six structural modules (rectangles with rounded corners) composing the three cystein-rich domains (CRD1, CRD2, CRD3), of the transmembrane domain (rectangle, TMD), of the signal peptide (Leader), of the stalk and of the intracellular domain (ID). Amino acid numbers at the junctions of interest are indicated. The arrow indicates the predicted cleavage site of the signal peptide. The scheme is drawn to scale, except for the intracellular domain. (B) Wells of ELISA plates were coated with goat anti-human IgG antibody, blocked, and further incubated with human EDAR-Fc, mouse EDAR-Fc or the indicated human EDAR-Fc truncation proteins in cell supernatants of transfected cells. One well was also left without cell supernatant (Ctrl). The efficient capture of the various EDAR-Fc proteins was controlled using horseradish peroxydase-coupled donkey anti-human IgG antibody. Binding of mAbEDARs were monitored with horseradish peroxydase-coupled anti-mouse IgG antibody.
(§3) EDAR is a transmembrane protein whose extracellular part is composed of three membrane distal cystein-rich domains (CRDs) and of a proximal membrane stalk domain (FIG. 9A). Constructs coding for the entire EDAR protein, domains I and II, domains II and III, domain III and the stalk domain, domains I, II and III alone and the stalk domain alone were assembled with the Fc region of human IgG1, inserted into a mammalian expression vector and transiently transfected in 293T cells. […] The other fragments were not recognized, in particular the fragments made up of either domain I or II alone. mAbEDAR5, 6, 12 and 13 specifically recognized domain I, alone or together with domain II. mAbEDAR9, 14 and 15 only recognized Fc constructs containing the entire EDAR extracellular domain.
A general note: In an ELISA, binding on a coated surface is turned into a signal by an enzyme label.

The target of assay [6] is T6, human EDAR domain I alone fused to Fc of human IgG1 (human, UniProt Q9UNE0 27-72).
T6 construct: also called CRD1 EDAR-Fc truncation protein; not shown: Fc region of human IgG1
T6 chain: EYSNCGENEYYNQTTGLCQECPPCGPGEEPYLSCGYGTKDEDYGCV
Description: capture ELISA on EDAR-Fc truncation proteins.
Source text: as §2, §3

The next assay concerns the target T7, mouse EDAR-Fc (mouse).
T7 construct: also called mouse EDAR (1-183)-Fc; soluble mouse EDAR-Fc fusion protein
Description: ELISA on mouse EDAR-Fc (FIG. 9).
Source text: as §2, with “FIG. 9. Epitope” for “Epitope”, “One well was also left without cell supernatant (Ctrl). The efficient capture of the various EDAR-Fc proteins was controlled using horseradish peroxydase-coupled donkey anti-human IgG antibody.” left out
In order to obtain antibodies recognizing both human and mouse EDAR, a feature which would considerably facilitate pre-clinical development of drug candidates, EDAR-deficient mice were immunized with human EDAR. It was then assessed whether monoclonal antibodies generated from these mice indeed recognized EDAR from these two animal species. […]

In assay [7] the target is T8, human EDAR stalk domain alone fused to Fc of human IgG1 (human, limits assumed).
T8 construct: also called stalk EDAR-Fc truncation protein; not shown: Fc region of human IgG1
T8 chain: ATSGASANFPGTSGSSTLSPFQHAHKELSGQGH
Put plainly: capture ELISA on EDAR-Fc truncation proteins (FIG. 9).
Source text: as §2, §3

Assay [8] has as its target T9, human EDAR domain II alone fused to Fc of human IgG1 (human, UniProt Q9R187 73-114 (mouse entry), limits assumed).
T9 construct: also called CRD2 EDAR-Fc truncation protein; not shown: Fc region of human IgG1
T9 chain: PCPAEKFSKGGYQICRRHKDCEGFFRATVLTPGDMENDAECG
Described as above.
Source text: as §2, §3

Assay [9] addresses T6, human EDAR domain I alone fused to Fc …. Described as above.
Source text: as §2, §3

The target of assay [10] is T3, human Fas-Fc. Description: ELISA on coated human Fas-Fc (FIG. 6C). On the procedure: FIG. 6. Specific binding of the anti-EDAR mAb to both mouse and human EDAR. Graded concentrations of mAbEDAR1-4 or of a control mAb (Aprily 5) were added to wells of a 96-well ELISA plate coated with 100 μl of 1 μg/ml of human EDAR-Fc, mouse EDAR-Fc, human Fas-Fc or Flag-human APRIL. […] The absorbance was measured at 490 nm.
In order to obtain antibodies recognizing both human and mouse EDAR, a feature which would considerably facilitate pre-clinical development of drug candidates, EDAR-deficient mice were immunized with human EDAR. It was then assessed whether monoclonal antibodies generated from these mice indeed recognized EDAR from these two animal species. The wells of microtiter plates were coated with soluble human and mouse EDAR-Fc fusion protein and a negative control protein (human Fas-Fc), blocked and probed with serial dilutions of anti-EDAR monoclonal antibody (mAb) mAbEDAR1, 2, 3 and 4 and a negative control mAb (Aprily 5) (FIG. 6), or with a single dose of mAbEDAR1 to 15 (FIG. 9).

The target in the next assay is T10, Flag-human APRIL (human, UniProt O75888 110-250, limits assumed).
T10 construct: Control antigen; not shown: Flag tag
T10 sequence (looked up): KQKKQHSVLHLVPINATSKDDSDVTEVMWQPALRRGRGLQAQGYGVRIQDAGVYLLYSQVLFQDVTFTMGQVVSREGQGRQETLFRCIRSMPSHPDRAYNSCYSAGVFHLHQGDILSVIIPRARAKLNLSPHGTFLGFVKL
Description: Western blot (FIG. 7A).
Source text: FIG. 7. Use of anti-EDAR mAb in Western blotting.
as §1

B1: Fc-EDA1 (Fc fusion, UniProt Q92838 245-391, looked up, not shown: a dimerising Fc or GST)
chain: ENQPAVVHLQGQGSAIQVKNDLSGGVLNDWSRITMNPKVFKLHPRSGELEVLVDGTYFIYSQVEVYYINFTDFASYEVVVDEKPFLQCTRSIETGKTNYNTCYTAGVCLLKARQKIAVKMVHADISINMSKHTTFFGAIRLGEAPAS
In the case of B1, in [1], the “EC50 (concentration of agonist inducing half maximal decrease of cell viability), hEDAR-Fas Jurkat cells” value was around 1 ng/mL. In addition, the “EC50 (concentration of agonist inducing half maximal decrease of cell viability), mEDAR-Fas Jurkat cells” value in assay [2] was around 1 ng/mL. In addition, in [3], the “EC50 (concentration of agonist inducing half maximal decrease of cell viability), EDAR-Fas Jurkat cells” value was in the range of 3 to 9 ng/mL.

B2: mAbEDAR5 (antibody, IgG2b, V domains shown)
VH: QVQLKQSGPGLVQPSQSLSITCTVSGFSLSNYGVHWIRQSPGKGLEWLGVIWGGGSTDYNAAFISRLSISKDNSKSQVFFKMNSLQADDTAIYYCASYYGYYDWFAYWGQGTLVTVSA
VL: EIVLTQSPTTMAASPGEKITITCSASSIISSNYLHWYQQKPGFSPKPLIYRTSNLASGVPARFSGSGSGTSYSLTIGTMEAEDVATYYCQQGSSIPRTFGSGTKLEIKR
Consider B2, for which the binding result in the assay with human Fas-Fc [4] is given as “no binding”; with human EDAR-Fc it was “binds”; in assay [5], “binds”; in assay [6] it was “binds”; in the assay with mouse EDAR-Fc, “binds”.

B3: mAbEDAR6 (antibody, IgG2a, V domains shown)
VH: EVQLQQSGPELVKPGASVKMSCKASGYSFTGYNMHWVKQSHGKSLEWIGYIDPYNGATSKNQKFKGKATLTVDKSSTTAYIQLNSLTSEDSAVYYCARYYYGDYHWYFDVWGAGTTVTVSS
VL: DVVMTQTPLSLPVSLGDQASISCRSSQSLVHSNGNTYLHWYLQQPGQSPKLLIYKVSNRFSGVPDRFSGSGSGTDFTLKISRVEAEDLGVYFCSQHTHVPPTFGAGTKLELKR
In the case of B3, the binding result is listed as “no binding” in the assay with human Fas-Fc [4]; “binds” in the assay with human EDAR-Fc; “binds” in assay [5]; “binds” in assay [6]; “binds” with mouse EDAR-Fc.

B4: mAbEDAR1 (antibody, IgG1, V domains shown)
VH: EVPLEESGGGLVKPGGSRKLSCAASGFTFSDHGMHWVRQAPEKGLEWIAYISSGSSNVYYSDTVKGRFTISRDNAKNTLFLQMTSLRSEDTAMYYCARRELLRFYFDVWGAGTTVTVSS
VL: DIQMTQTTSSLSASLGDRVTISCRASQDIGNHLNWYQQKPDGTVKLLIYYTSRIHSGVPSRFSGSGSGTDYSLTISNLEQEDIATYFCQQGNTLPWTFGGGTKLEIKR
notes: also called anti-EDAR mAb mAbEDAR1
As to B4, the binding result in assay [7] is “no binding”; in assay [8] it was “no binding”; in assay [9] it was “no binding”; in the assay with human Fas-Fc [10], “no binding”; in [5], “binds”; in the assay with Flag-human APRIL it was “no binding”.

B5: mAbEDAR3 (antibody, IgG1, V domains shown)
VH: EVPLEESGGGLVKPGGSRKLSCAASGFTFSDYGMHWVRQAPEKGLEWVAYISSGSSAIYYADTVKGRFTISRDNAKSTLFLQMTSLRSEDTAMYYCARREILRYYFDVWGAGTTVTVSS
VL: DIQMTQSTSSLSASLGDRVTISCRASQDISNNLNWYQQRPDGTVKLLIYYTSRSQSGVPSRFSGSGSGTDYSLTISNLEQEDVATYFCHQGKTLPYTFGGGTKLEIKR
notes: also called anti-EDAR mAb mAbEDAR3
With B5, the binding result in the assay with human Fas-Fc [4] was “no binding”; in [7], “no binding”; in assay [8], “no binding”; in assay [9], “no binding”; in assay [5] it was “binds”; with Flag-human APRIL it was “no binding”.

For the origin of these results see patent US20130273046A1 (UNIVERSITE DE LAUSANNE, published 2013).
